The nature of test [1]: In vivo activity of ActRIIA variant with substitution at X17. The conditions noted are these: substitution of A for K at X17.
The target of test [2] is T1, GDF11 (Homo sapiens, UniProt O95390).
T1 sequence (O95390 299-407): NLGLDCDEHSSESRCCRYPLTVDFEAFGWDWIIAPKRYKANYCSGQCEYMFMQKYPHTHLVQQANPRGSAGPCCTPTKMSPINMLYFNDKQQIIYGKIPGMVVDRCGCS
The test can be described thus: Biacore ligand affinity of ActRIIB-hFc forms, steady-state affinity fit. Format: binding. Here is the method: (§1) Affinities of several ligands for ActRIIB(25-131)-hFc and its full-length counterpart ActRIIB(20-134)-hFc were evaluated in vitro with a Biacore™ instrument, and the results are summarized in Table 8 below. Kd values were obtained by steady-state affinity fit due to very rapid association and dissociation of the complex, which prevented accurate determination of kon and koff. ActRIIB(25-131)-hFc bound, for example, activin A, activin B, and GDF11 with high affinity.
(§2) The affinity of ActRIIB variants and other ActRIIB-hFc proteins for several ligands was evaluated in vitro with a Biacore™ instrument. Kd values were obtained by steady-state affinity fit due to the very rapid association and dissociation of the complex, which prevented accurate determination of kon and koff.

Test [3] has as its target T2, activin B (Homo sapiens, UniProt P09529).
T2 sequence (P09529 293-407): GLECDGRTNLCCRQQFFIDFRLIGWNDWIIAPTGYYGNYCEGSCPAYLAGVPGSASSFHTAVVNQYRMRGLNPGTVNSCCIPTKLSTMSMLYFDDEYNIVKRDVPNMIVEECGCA
The test is described as above. Format: binding. Here is the method:
as §1, §2

In test [4] the target is T3, activin A (Homo sapiens, UniProt P08476).
T3 sequence (P08476 311-426): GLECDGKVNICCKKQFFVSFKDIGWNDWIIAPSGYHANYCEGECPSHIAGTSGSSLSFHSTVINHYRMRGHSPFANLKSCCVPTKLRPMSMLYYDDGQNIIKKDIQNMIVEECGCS
The test is described as above. Format: binding. The method, then:
as §1, §2

Test [5] concerns the target T4, BMP6 (Homo sapiens, UniProt P22004).
T4 sequence (P22004 375-513): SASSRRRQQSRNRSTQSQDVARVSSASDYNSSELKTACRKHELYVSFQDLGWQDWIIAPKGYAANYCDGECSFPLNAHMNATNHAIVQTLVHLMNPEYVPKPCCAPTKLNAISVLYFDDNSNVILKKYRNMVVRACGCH
The test can be described thus: Biacore ligand affinity of ActRIIB-hFc variants (Example 10). Format: binding. Here is the method:
as §2
For orientation: Surface plasmon resonance follows binding to a sensor surface in real time, without labels.

Test [6] deals with T5, BMP10 (Homo sapiens, UniProt O95393).
T5 sequence (O95393 317-424): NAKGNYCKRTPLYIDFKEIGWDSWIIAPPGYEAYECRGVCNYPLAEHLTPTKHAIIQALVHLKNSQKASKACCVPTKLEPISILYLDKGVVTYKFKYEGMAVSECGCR
The test is described as above. It counts as binding. Here is the method:
as §2

In test [7] the target is T6, GDF8 (Homo sapiens, UniProt O14793).
T6 sequence (O14793 267-375): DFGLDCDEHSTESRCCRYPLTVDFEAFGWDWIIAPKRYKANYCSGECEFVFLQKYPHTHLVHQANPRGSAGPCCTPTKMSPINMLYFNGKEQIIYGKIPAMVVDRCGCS
Described as above. Format: binding. The method, then:
as §2

In test [8] the target is T1, GDF11. The test can be described thus: Biacore ligand binding profile, ALK4-Fc:ActRIIB-Fc heterodimer vs homodimers, anti-Fc capture (Example 13, Table 13). The method, then:
(§3) A Biacore™-based binding assay was used to compare ligand binding selectivity of the ALK4-Fc:ActRIIB-Fc heterodimeric complex described above with that of ActRIIB-Fc and ALK4-Fc homodimer complexes. The ALK4-Fc:ActRIeB-Fc heterodimer, […], and ALK4-Fc homodimer were independently captured onto the system using an anti-Fc antibody. Ligands were injected and allowed to flow over the captured receptor protein. Results are summarized in Table 13 below, in which ligand off-rates (kd) most indicative of effective polypeptides are denoted in bold.

Test [9] concerns the target T4, BMP6. The description is as above. Here is the method:
as §3

In test [10] the target is T5, BMP10. The description is as above. As to conditions: ligand BMP10, Table 13. The method, then: as §3
Test [11] deals with T2, activin B. The test is described as above. The conditions noted are these: ligand Activin B, Table 13. Here is the method:
as §3

Test [12] addresses T6, GDF8. The test is described as above. Here is the method:
as §3

Test [13] has as its target T7, BMP9 (Homo sapiens, UniProt Q9UK05).
T7 sequence (Q9UK05 320-429): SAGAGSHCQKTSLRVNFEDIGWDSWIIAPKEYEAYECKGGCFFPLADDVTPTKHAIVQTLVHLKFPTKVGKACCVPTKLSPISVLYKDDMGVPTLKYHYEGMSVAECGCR
Described as above. The method, then:
as §3

Test [14] concerns the target T8, GDF3 (Homo sapiens, UniProt Q9NR23).
T8 sequence (Q9NR23 251-364): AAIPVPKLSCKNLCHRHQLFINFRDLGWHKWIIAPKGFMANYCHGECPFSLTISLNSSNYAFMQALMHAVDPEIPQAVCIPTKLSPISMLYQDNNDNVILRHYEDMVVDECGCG
The test is described as above. As to conditions: ligand GDF3, Table 13. Here is the method:
as §3

In test [15] the target is T3, activin A. The description is as above. Here is the method:
as §3

The target of test [16] is T1, GDF11. The test is described as follows: A-204 reporter gene assay, pGL3(CAGA)12 luciferase. It counts as cell-based. As to conditions: A-204 reporter gene assay. In short, it runs like this: (§4)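 Human rhabdomyosarcoma A-204 cells transfected with SMAD-responsive pGL3(CAGA)12 luciferase reporter (optionally with pRLCMV). Ligand in medium + 0.1% BSA, preincubated ~1 h with Fc-fusion inhibitor before addition to cells; after ~6 h cells lysed and luciferase activity measured.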
(In a reporter assay the amount or activity of a reporter protein is the signal.)

Test [17] addresses T2, activin B. The test is described as follows: A-204 Reporter Gene Assay (Example 13). It counts as cell-based. The text has this: (§5) In addition, an A-204 Reporter Gene Assay was used to evaluate the effects of ALK4-Fc:ActRIIB-Fc heterodimer and ActRIIB-Fc:ActRIIB-Fc homodimer on signaling by activin A, activin B, GDF11, GDF8, BMP10, and BMP9. Cell line: Human Rhabdomyosarcoma (derived from muscle). Reporter vector: pGL3(CAGA)12 (as described in Dennler et al, 1998, EMBO 17: 3091-3100). The CAGA12 motif is present in TGFβ responsive genes (PAI-1 gene), so this vector is of general use for factors signaling through Smads. An exemplary A-204 Reporter Gene Assay is outlined below. • Day 1: Split A-204 cells into 48-well plate. • Day 2: A-204 cells transfected with 10 ug pGL3(CAGA)12 or pGL3(CAGA)12(10 ug)+pRLCMV (1 ug) and Fugene. • Day 3: Add factors (diluted into medium+0.1% BSA). Inhibitors need to be pre-incubated with Factors for about one hr before adding to cells. About six hrs later, cells are rinsed with PBS and then lysed.
(§6) Following the above steps, a Luciferase assay was performed.

In test [18] the target is T3, activin A. The test can be described thus: A-204 reporter gene assay, pGL3(CAGA)12 luciferase. It counts as cell-based. As to conditions: A-204 reporter gene assay. Summed up:
as §4

In test [19] the target is T6, GDF8. The test can be described thus: A-204 reporter gene assay, pGL3(CAGA)12 luciferase. Format: cell-based.
Description: An A-204 reporter gene assay was used to evaluate the effects of ActRIIB-Fc proteins and ActRIIB variant Fc fusion polypeptides on signaling by GDF-11 and activin A. Cell line: human rhabdomyosarcoma (derived from muscle). Reporter vector: pGL3(CAGA)12 (described in Dennler et al, 1998, EMBO 17: 3091-3100). The CAGA12 motif is present in TGF-beta responsive genes (e.g., PAI-1 gene), so this vector is of general use for factors signaling through SMADs.
Day 1: Split A-204 cells into 48-well plate.
Day 2: A-204 cells transfected with 10 ug pGL3(CAGA)12 or pGL3(CAGA)12(10 ug)+pRLCMV (1 pg) and Fugene.
Day 3: Add factors (diluted into medium+0.1% BSA). Inhibitors need to be preincubated with factors for 1 hr before adding to cells. Six hrs later, cells were rinsed with PBS and lysed.
This is followed by a luciferase assay.
As described below, ActRIIB variants were also tested in this assay.
as §5, §6

This is an account of results in patent publication US20230129812A1, “COMPOSITIONS AND METHODS FOR TREATING PULMONARY HYPERTENSION” (Acceleron Pharma Inc., priority 2020, published 2023).

One may read the Kd as a measure of binding affinity in units of concentration.

B1: SEQ ID NO: 283: ActRIIA variant with alanine (A) substituted for lysine (K) at X17 (protein)
chain: GAILGRSETQECLFYNANWELERTNQTGVERCEGEKDKRLHCYATWRNISGSIEIVAKGCWLDDFNCYDRTDCVETEENPQVYFCCCEGNMCNEKFSYFPEMEVTQPTS
Take B1: in test [1], the activity in vivo entry is listed as “reduced activity in vivo”.

B2: ActRIIB(L79D 25-131)-hFc: truncated ActRIIB extracellular domain (residues 25-131) with L79D substitution fused to human Fc (protein)
chain: ETRECIYYNANWELERTNQSGLERCEGEQDKRLHCYASWRNSSGTIELVKKGCWDDDFNCYDRQECVATEENPQVYFCCCEGNFCNERFTHLPEAGGPEVTYEPPPTGGGTHTCPPCPAPELLGGPSVFLFPPKPKDTLMISRTPRVTCVVVDVSHEDPEVKFNWYVDGVEVHNAKTKPREEQYNSTYRVVSVLTVLHQDWLNGKEYKCKVSNKALPAPIEKTISKAKGQPREPQVYTLPPSREEMTKNQVSLTCLVKGFYPSDIAVEWESNGQPENNYKTTPPVLDSDGSFFLYSKLTVDKSRWQQGNVFSCSVMHEALHNHYTQKSLSLSPGK
As to B2, the “GDF11 binding” value in test [2] (Biacore) is “nearly full retention of GDF11 binding”. Also, the equilibrium dissociation constant (Kd) stood at 0.074 nM in test [2] (Table 12, Kd by steady-state affinity fit, read-out: GDF11 (Kd e−11)); 0.621 nM in test [3] (Table 12, Kd by steady-state affinity fit, read-out: Activin B (Kd e−11)); 22.9 nM in test [4] (Table 12, Kd by steady-state affinity fit, read-out: Activin A (Kd e−11)). The “activin B binding” value in test [3] (Biacore) is listed as “partial loss of activin B binding”. For the same molecule, in test [4] (Biacore), the “activin A binding” value was “pronounced loss of activin A binding”. Also, in test [5], the “BMP6 binding” value was “strong to intermediate binding”. Besides, the “BMP10 binding” value in test [6] is listed as “strong to intermediate binding”. In addition, in [7], the “GDF8 binding” value is “strong to intermediate binding”.

B3: ActRIIB-Fc homodimer: ActRIIB-Fc homodimer complex used as comparator in Example 13 (protein)
chain: GRGEAETRECIYYNANWELERTNQSGLERCEGEQDKRLHCYASWRNSSGTIELVKKGCWLDDFNCYDRQECVATEENPQVYFCCCEGNFCNERFTHLPEAGGPEVTYEPPPTAPTGGGTHTCPPCPAPELLGGPSVFLFPPKPKDTLMISRTPEVTCVVVDVSHEDPEVKFNWYVDGVEVHNAKTKPREEQYNSTYRVVSVLTVLHQDWLNGKEYKCKVSNKALPVPIEKTISKAKGQPREPQVYTLPPSREEMTKNQVSLTCLVKGFYPSDIAVEWESNGQPENNYKTTPPVLDSDGSFFLYSKLTVDKSRWQQGNVFSCSVMHEALHNHYTQKSLSLSPGK
For B3, the “GDF11 binding” value in test [8] (Example 13) is on record as “strong binding”. For the same molecule, the ka in test [8] (ligand GDF11, Table 13) is 5.0 × 10^7 1/MS; in [9] (ligand BMP6, Table 13) it was 3.2 × 10^7 1/MS; in test [10], 2.3 × 10^7 1/MS; in [11], 5.1 × 10^6 1/MS; in [12] (ligand GDF8, Table 13), 8.3 × 10^5 1/MS; in test [13] (ligand BMP9, Table 13) it was 1.4 × 10^7 1/MS. Also, the ka in test [14] is on record as 1.4 × 10^6 1/MS; in test [15] (ligand Activin A, Table 13), 1.2 × 10^7 1/MS. Moreover, the kd amounted to 0.00011 s⁻¹ in test [8] (ligand GDF11, Table 13); 0.0068 s⁻¹ in test [9] (ligand BMP6, Table 13); 0.00026 s⁻¹ in test [10]; 0.0001 s⁻¹ in test [11]; 0.00023 s⁻¹ in [12] (ligand GDF8, Table 13); 0.0011 s⁻¹ in test [13] (ligand BMP9, Table 13). Further, the kd turned out to be 0.0022 s⁻¹ in test [14] and 0.00023 s⁻¹ in [15] (ligand Activin A, Table 13). Moreover, the “BMP6 binding” value in test [9] (Example 13) is listed as “intermediate-level binding”. The “GDF8 binding” value in test [12] (Example 13) is “strong binding”. The “BMP9 binding” value in test [13] (Example 13) is given as “binds strongly”. In test [15] (Example 13), the “activin A binding” value is “strong binding”. The “inhibition of GDF11 signaling” value in test [16] is on record as “potent inhibitors”. The “inhibition of activin B signaling” value in test [17] was “potent inhibitors”. Also, in test [18], the “inhibition of activin A signaling” value was “potent inhibitors”. The “inhibition of GDF8 signaling” value in test [19] is on record as “potent inhibitors”.
